T1: FcγRIIB (human, UniProt P31994 43-217, biotin-labeled)
T1 construct: extracellular domain; Bought protein; also called CD32b
T1 sequence (looked up): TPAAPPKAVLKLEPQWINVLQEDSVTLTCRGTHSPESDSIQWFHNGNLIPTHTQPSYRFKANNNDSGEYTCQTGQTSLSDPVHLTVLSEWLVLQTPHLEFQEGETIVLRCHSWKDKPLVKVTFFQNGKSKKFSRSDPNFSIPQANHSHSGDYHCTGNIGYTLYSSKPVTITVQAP

T2: FcγRIIA^131R (human, UniProt P12318 34-217, biotin-labeled)
T2 construct: extracellular domain; Bought protein; also called RIIAR
T2 sequence (looked up): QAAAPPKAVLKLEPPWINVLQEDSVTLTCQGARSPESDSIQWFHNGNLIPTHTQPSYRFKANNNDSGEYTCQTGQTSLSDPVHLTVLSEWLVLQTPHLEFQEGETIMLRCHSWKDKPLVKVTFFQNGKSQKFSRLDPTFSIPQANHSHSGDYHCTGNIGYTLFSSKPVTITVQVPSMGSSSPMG

T3: FcγRIIA^131H (human, UniProt P12318 34-217, biotin-labeled)
T3 construct: extracellular domain; Bought protein; also called RIIAH
T3 sequence (looked up): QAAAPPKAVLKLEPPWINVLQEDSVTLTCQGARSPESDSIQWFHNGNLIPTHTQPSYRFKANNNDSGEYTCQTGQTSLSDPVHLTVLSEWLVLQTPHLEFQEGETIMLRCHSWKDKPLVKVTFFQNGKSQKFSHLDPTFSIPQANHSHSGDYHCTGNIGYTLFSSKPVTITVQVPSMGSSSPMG


Key:
[1] = target: T1, FcγRIIB; assay: ELISA; relative affinity to FcγRIIB over that to FcγRIIA131R
Procedure: One hundred μl (2 μg/mL) of antibody or mutant thereof were added to the enzyme-linked plate to be coated overnight, then the supernatant was discarded. The plate was blocked with PBS containing 1% BSA for 2 hours, and washed with PBST (PBS containing 0.05% Tween 20). Biotin-labeled FcγR extracellular domain protein (Beijing Sino Biological Co., Ltd) of appropriate concentration was added and incubated at room temperature for 1 hour, then the supernatant was discarded and the plate was washed with PBST. The Biotin-labeled protein was detected by incubating with Streptavidin-HRP (BD BioSciences) at room temperature for 1 hour. The supernatant was removed, and the color-developing solution was added for color development for 20-40 minutes to determine the absorbance of 650 nm (A650).
Anti-human OX40 antibodies containing these new Fc mutation combinations are expressed and the binding property of the mutant antibody to FcγR are analyzed by Enzyme-linked immunosorbent assay (ELISA).

[2] = target: T4, FcγRIIIA^158F (human, UniProt P08637 17-208, biotin-labeled); assay: ELISA, coated antibody, biotin-FcγR;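 on Absorbance value: antibody coated at 2 µg/mL at 100 µL per well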
T4 construct: extracellular domain; Bought protein; also called RIIIAF

[3] = target: T5, FcγRI (human, UniProt P12314 16-292, biotin-labeled); assay: ELISA, coated antibody, biotin-FcγR;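 on Absorbance value: antibody coated at 2 µg/mL at 100 µL per well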
T5 construct: extracellular domain; Bought protein; also called CD64

[4] = target: T6, FcγRIIIA^158V (human, UniProt P08637 17-208, biotin-labeled); assay: ELISA, coated antibody, biotin-FcγR;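 on Absorbance value: antibody coated at 2 µg/mL at 100 µL per well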
T6 construct: extracellular domain; Bought protein; also called RIIIAV; CD16a 158V

[5] = target: T2, FcγRIIA^131R; assay: ELISA, coated antibody, biotin-FcγR;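 on Absorbance value: antibody coated at 2 µg/mL at 100 µL per well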
[6] = target: T1, FcγRIIB; assay: ELISA, coated antibody, biotin-FcγR;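 on Absorbance value: antibody coated at 2 µg/mL at 100 µL per well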
[7] = target: T3, FcγRIIA^131H; assay: ELISA, coated antibody, biotin-FcγR;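 on Absorbance value: antibody coated at 2 µg/mL at 100 µL per well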

T6 sequence (P08637 17-208 F176V): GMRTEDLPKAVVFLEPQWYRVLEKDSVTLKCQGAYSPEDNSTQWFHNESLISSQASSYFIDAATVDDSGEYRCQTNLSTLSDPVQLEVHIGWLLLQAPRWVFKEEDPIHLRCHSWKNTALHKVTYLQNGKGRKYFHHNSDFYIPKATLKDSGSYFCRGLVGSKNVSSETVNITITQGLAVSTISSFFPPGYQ
T5 sequence (P12314 16-292): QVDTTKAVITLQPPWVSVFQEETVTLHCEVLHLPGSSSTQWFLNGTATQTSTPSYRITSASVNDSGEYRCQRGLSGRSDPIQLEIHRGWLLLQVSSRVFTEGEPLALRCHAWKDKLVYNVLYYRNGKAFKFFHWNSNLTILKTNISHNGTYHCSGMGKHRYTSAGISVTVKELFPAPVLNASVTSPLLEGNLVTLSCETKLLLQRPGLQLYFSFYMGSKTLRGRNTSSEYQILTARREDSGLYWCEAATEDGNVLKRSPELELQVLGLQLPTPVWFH
T4 sequence (P08637 17-208): as the sequence (P08637 17-208 F176V) above, with V160F counted along it

Binder | RIIB/RIIAR [1] [ratio] | Absorbance value [2] [A650] | Relative binding affinity RIIIAF/G1 [2] [ratio] | Absorbance value [3] [A650] | Relative binding affinity RI/G1 [3] [ratio] | Absorbance value [4] [A650] | Relative binding affinity RIIIAV/G1 [4] [ratio] | Absorbance value [5] [A650] | Relative binding affinity RIIAR/G1 [5] [ratio] | Absorbance value [6] [A650] | Increased factor of RIIB binding compared with wild-type IgG2 [6] [fold] | Relative binding affinity RIIB/G1 [6] [ratio] | Absorbance value [7] [A650] | Relative binding affinity RIIAH/G1 [7] [ratio]
anti-human OX40 IgG2 antibody Mut_10 (S267E/H268S/E269D) (antibody, name in EU numbering, Substitutions in Eu numbering; entries include an unstated signal peptide) heavy: QVQLQESGPGLVKPSGTLSLTCAVSGGSISSSIWWSWVRQPPGKGLEWIGEIHHSGNTNCNPSLKSRVTISIDKSKNQFSLKLTSVTAADTAVYYCARAGTGTTLDYWGQGTLVTVSSASTKGPSVFPLAPCSRSTSESTAALGCLVKDYFPEPVTVSWNSGALTSGVHTFPAVLQSSGLYSLSSVVTVPSSNFGTQTYTCNVDHKPSNTKVDKTVERKCCVECPPCPAPPVAGPSVFLFPPKPKDTLMISRTPEVTCVVVDVESDDPEVQFNWYVDGVEVHNAKTKPREEQFNSTFRVVSVLTVVHQDWLNGKEYKCKVSNKGLPAPIEKTISKTKGQPREPQVYTLPPSREEMTKNQVSLTCLVKGFYPSDIAVEWESNGQPENNYKTTPPMLDSDGSFFLYSKLTVDKSRWQQGNVFSCSVMHEALHNHYTQKSLSLSPGK light: EIVLTQSPGTLSLSPGERATLSCRASQSVSGDYLAWYQQKLGQAPRLLIYGASIRATGIPDRFSGSGSGTDFTLTISKLEPEDFAVYYCQQYGSSPLTFGGGTKVEIKRTVAAPSVFIFPPSDEQLKSGTASVVCLLNNFYPREAKVQWKVDNALQSGNSQESVTEQDSKDSTYSLSSTLTLSKADYEKHKVYACEVTHQGLSSPVTKSFNRGEC | 0.85 | 0.09 | 0.48 | 0.18 | 0.07 | 0.09 | 0.09 | 0.43 | 1.64 | 1.05 | 14.1 | 1.4 | 0.58 | 1.02
anti-human OX40 IgG2 antibody Mut_11 (S267E/A330S) (antibody, name in EU numbering, Substitutions in Eu numbering; entries include an unstated signal peptide) heavy: QVQLQESGPGLVKPSGTLSLTCAVSGGSISSSIWWSWVRQPPGKGLEWIGEIHHSGNTNCNPSLKSRVTISIDKSKNQFSLKLTSVTAADTAVYYCARAGTGTTLDYWGQGTLVTVSSASTKGPSVFPLAPCSRSTSESTAALGCLVKDYFPEPVTVSWNSGALTSGVHTFPAVLQSSGLYSLSSVVTVPSSNFGTQTYTCNVDHKPSNTKVDKTVERKCCVECPPCPAPPVAGPSVFLFPPKPKDTLMISRTPEVTCVVVDVEHEDPEVQFNWYVDGVEVHNAKTKPREEQFNSTFRVVSVLTVVHQDWLNGKEYKCKVSNKGLPSPIEKTISKTKGQPREPQVYTLPPSREEMTKNQVSLTCLVKGFYPSDIAVEWESNGQPENNYKTTPPMLDSDGSFFLYSKLTVDKSRWQQGNVFSCSVMHEALHNHYTQKSLSLSPGK light: EIVLTQSPGTLSLSPGERATLSCRASQSVSGDYLAWYQQKLGQAPRLLIYGASIRATGIPDRFSGSGSGTDFTLTISKLEPEDFAVYYCQQYGSSPLTFGGGTKVEIKRTVAAPSVFIFPPSDEQLKSGTASVVCLLNNFYPREAKVQWKVDNALQSGNSQESVTEQDSKDSTYSLSSTLTLSKADYEKHKVYACEVTHQGLSSPVTKSFNRGEC | 0.98 | 0.08 | 0.41 | 0.13 | 0.05 | 0.08 | 0.08 | 0.36 | 1.36 | 1.01 | 13.4 | 1.33 | 0.55 | 0.96
anti-human OX40 IgG2 antibody Mut_14 (V234M/S267E/S298G/I332L) (antibody, Substitutions in Eu numbering; entries include an unstated signal peptide) heavy: QVQLQESGPGLVKPSGTLSLTCAVSGGSISSSIWWSWVRQPPGKGLEWIGEIHHSGNTNCNPSLKSRVTISIDKSKNQFSLKLTSVTAADTAVYYCARAGTGTTLDYWGQGTLVTVSSASTKGPSVFPLAPCSRSTSESTAALGCLVKDYFPEPVTVSWNSGALTSGVHTFPAVLQSSGLYSLSSVVTVPSSNFGTQTYTCNVDHKPSNTKVDKTVERKCCVECPPCPAPPMAGPSVFLFPPKPKDTLMISRTPEVTCVVVDVEHEDPEVQFNWYVDGVEVHNAKTKPREEQFNGTFRVVSVLTVVHQDWLNGKEYKCKVSNKGLPAPLEKTISKTKGQPREPQVYTLPPSREEMTKNQVSLTCLVKGFYPSDIAVEWESNGQPENNYKTTPPMLDSDGSFFLYSKLTVDKSRWQQGNVFSCSVMHEALHNHYTQKSLSLSPGK light: EIVLTQSPGTLSLSPGERATLSCRASQSVSGDYLAWYQQKLGQAPRLLIYGASIRATGIPDRFSGSGSGTDFTLTISKLEPEDFAVYYCQQYGSSPLTFGGGTKVEIKRTVAAPSVFIFPPSDEQLKSGTASVVCLLNNFYPREAKVQWKVDNALQSGNSQESVTEQDSKDSTYSLSSTLTLSKADYEKHKVYACEVTHQGLSSPVTKSFNRGEC | 0.76 | 0.06 | 0.31 | 0.12 | 0.04 | 0.05 | 0.06 | 0.32 | 1.22 | 0.7 | 9.36 | 0.93 | 0.12 | 0.21

Other lines, results leading:

RIIB/RIIAR [1] [ratio] | Absorbance value [2] [A650] | Relative binding affinity RIIIAF/G1 [2] [ratio] | Absorbance value [3] [A650] | Relative binding affinity RI/G1 [3] [ratio] | Absorbance value [4] [A650] | Relative binding affinity RIIIAV/G1 [4] [ratio] | Absorbance value [5] [A650] | Relative binding affinity RIIAR/G1 [5] [ratio] | Absorbance value [6] [A650] | Increased factor of RIIB binding compared with wild-type IgG2 [6] [fold] | Relative binding affinity RIIB/G1 [6] [ratio] | Absorbance value [7] [A650] | Relative binding affinity RIIAH/G1 [7] [ratio] | Binder
0.99 | 0.06 | 0.32 | 0.21 | 0.08 | 0.06 | 0.06 | 0.33 | 1.26 | 0.94 | 12.6 | 1.25 | 0.39 | 0.68 | anti-human OX40 IgG2 antibody Mut_12 (P233F/V266L/S298L/L328W) (antibody, Substitutions in Eu numbering; entries include an unstated signal peptide) heavy: QVQLQESGPGLVKPSGTLSLTCAVSGGSISSSIWWSWVRQPPGKGLEWIGEIHHSGNTNCNPSLKSRVTISIDKSKNQFSLKLTSVTAADTAVYYCARAGTGTTLDYWGQGTLVTVSSASTKGPSVFPLAPCSRSTSESTAALGCLVKDYFPEPVTVSWNSGALTSGVHTFPAVLQSSGLYSLSSVVTVPSSNFGTQTYTCNVDHKPSNTKVDKTVERKCCVECPPCPAPFVAGPSVFLFPPKPKDTLMISRTPEVTCVVVDLSHEDPEVQFNWYVDGVEVHNAKTKPREEQFNLTFRVVSVLTVVHQDWLNGKEYKCKVSNKGWPAPIEKTISKTKGQPREPQVYTLPPSREEMTKNQVSLTCLVKGFYPSDIAVEWESNGQPENNYKTTPPMLDSDGSFFLYSKLTVDKSRWQQGNVFSCSVMHEALHNHYTQKSLSLSPGK light: EIVLTQSPGTLSLSPGERATLSCRASQSVSGDYLAWYQQKLGQAPRLLIYGASIRATGIPDRFSGSGSGTDFTLTISKLEPEDFAVYYCQQYGSSPLTFGGGTKVEIKRTVAAPSVFIFPPSDEQLKSGTASVVCLLNNFYPREAKVQWKVDNALQSGNSQESVTEQDSKDSTYSLSSTLTLSKADYEKHKVYACEVTHQGLSSPVTKSFNRGEC
0.96 | 0.07 | 0.37 | 0.18 | 0.07 | 0.08 | 0.09 | 0.26 | 1.01 | 0.73 | 9.75 | 0.97 | 0.33 | 0.58 | anti-human OX40 IgG2 antibody Mut_13 (V266L/S298L/L328W) (antibody, name in EU numbering, Substitutions in Eu numbering; entries include an unstated signal peptide) heavy: QVQLQESGPGLVKPSGTLSLTCAVSGGSISSSIWWSWVRQPPGKGLEWIGEIHHSGNTNCNPSLKSRVTISIDKSKNQFSLKLTSVTAADTAVYYCARAGTGTTLDYWGQGTLVTVSSASTKGPSVFPLAPCSRSTSESTAALGCLVKDYFPEPVTVSWNSGALTSGVHTFPAVLQSSGLYSLSSVVTVPSSNFGTQTYTCNVDHKPSNTKVDKTVERKCCVECPPCPAPPVAGPSVFLFPPKPKDTLMISRTPEVTCVVVDLSHEDPEVQFNWYVDGVEVHNAKTKPREEQFNLTFRVVSVLTVVHQDWLNGKEYKCKVSNKGWPAPIEKTISKTKGQPREPQVYTLPPSREEMTKNQVSLTCLVKGFYPSDIAVEWESNGQPENNYKTTPPMLDSDGSFFLYSKLTVDKSRWQQGNVFSCSVMHEALHNHYTQKSLSLSPGK light: EIVLTQSPGTLSLSPGERATLSCRASQSVSGDYLAWYQQKLGQAPRLLIYGASIRATGIPDRFSGSGSGTDFTLTISKLEPEDFAVYYCQQYGSSPLTFGGGTKVEIKRTVAAPSVFIFPPSDEQLKSGTASVVCLLNNFYPREAKVQWKVDNALQSGNSQESVTEQDSKDSTYSLSSTLTLSKADYEKHKVYACEVTHQGLSSPVTKSFNRGEC

— patent US20230220042A1 (SHANGHAI JIAO TONG UNIVERSITY SCHOOL OF MEDICINE, published 2023)
